Laboratory results taken from PMC8563947 (Scientific Reports, 2021).
Numbering of substitutions follows the chain as printed. Numbers in names are those of the source.

Key:
[1] = target: T1, green fluorescent protein (Aequorea victoria (assumed; GFP variant …, UniProt P42212 = GFP); experiment: SPR; Biacore T-200, multicycle; 265-274 RU of recombinant GFP immobilised on CM5 chip; Nbs flowed in five dilutions; HBS-EP+ buffer, 25 °C, 30 μL/min; conditions: both partners purified
T1 construct: green fluorescent protein (GFP, 27 kDa); the GFP construct may be there; also called GFP; recombinant GFP; source: E. coli BL21 (DE3), purified (Ni-NTA agarose)

[2] = target: T1, green fluorescent protein; experiment: as above; conditions: both partners purified; remark: listed apart in the source

B1: anti-GFP mutant nanobody Y37A without peptide barcode (VHH)
VHH: QVQLVESGGALVQPGGSLRLSCAASGFPVNRYSMRWARQAPGKEREWVAGMSSAGDRSSYEDSVKGRFTISRDDARNTVYLQMNSLKPEDTAVYYCNVNVGFEYWGQGTQVTVSS
notes: as the VHH chain of m2 with the stated change; source: P. pastoris, purified (Ni-NTA agarose)
Kd [1]: 16.4 nM | koff [1]: 0.0759 s⁻¹ | kon [1]: 4.62e+06 M⁻¹ s⁻¹

B2: anti-GFP mutant nanobody W47A without peptide barcode (VHH)
VHH: B1 VHH with A37Y, W47A
notes: as for B1
Kd [1]: 0.722 nM | koff [1]: 0.00606 s⁻¹ | kon [1]: 8.39e+06 M⁻¹ s⁻¹

B3: anti-GFP mutant nanobody R57A without peptide barcode (VHH)
VHH: B1 VHH with A37Y, R57A
notes: as the VHH chain of m2 with the stated change; source: Pichia pastoris GS115, culture medium, purified (His SpinTrap)
Kd [2]: 0.02 nM | koff [2]: 6.72e-05 s⁻¹ | kon [2]: 3.42e+06 M⁻¹ s⁻¹

B4: anti-GFP mutant nanobody F102A without peptide barcode (VHH)
VHH: B1 VHH with A37Y, F102A
notes: as for B3
Kd [2]: 0.121 nM | koff [2]: 0.000628 s⁻¹ | kon [2]: 5.2e+06 M⁻¹ s⁻¹

B5: anti-GFP mutant nanobody R35A without peptide barcode (VHH)
VHH: B1 VHH with R35A, A37Y
notes: as for B1
binding result [1]: no binding

B6: anti-GFP mutant nanobody G50A without peptide barcode (VHH)
VHH: B1 VHH with A37Y, G50A
notes: as for B1
binding result [1]: no binding

B7: anti-GFP mutant nanobody E103A without peptide barcode (VHH)
VHH: B1 VHH with A37Y, E103A
notes: as for B1
binding result [1]: no binding
